Data set [1] concerns Saccharomyces cerevisiae. The experiment in a line: protein stability index of tFT-peptide fusion in wild type (PSI (0-1 scale)); higher = more stable (slower turnover). As to conditions: genetic background: wild type.
The subject of data set [2] is Saccharomyces cerevisiae. Nature of the data set: protein stability index of tFT-peptide fusion in deletion strain of DOA10 (PSI (0-1 scale)); higher = more stable (slower turnover). The procedure:
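MPS profiling in S. cerevisiae of two library types built from selected 12-aa C-degron peptides (IN1, IN2, LN1, LN3, VN2, R1-R5, W1-W3, Atg1 and Rpa12 C-termini): saturation mutagenesis libraries and C-terminal +1 capping libraries (13 aa). Each peptide is fused to the C-terminus of a sfGFP-mCherry timer, after a GGGS linker. Cells are FACS-sorted into 8 mCherry/sfGFP bins and sequenced. PSI runs from 0 (unstable) to 1 (stable), measured once in wild type and in the das1Δ or doa10Δ background.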

Data set [3] relates to Saccharomyces cerevisiae. Nature of the data set: protein stability index of tFT-peptide fusion (C-terminal peptide) (PSI (0-1 scale)); higher = more stable (slower turnover). The conditions noted are these: genetic background: wild type; temperature: 30 C.
The subject of data set [4] is Saccharomyces cerevisiae. Described as above. The procedure: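 MPS profiling in S. cerevisiae of the tFT-X12 degron library: putative degron peptides plus stable controls, 12 aa, fused to the C-terminus of a sfGFP-mCherry timer. Cells are FACS-sorted into 8 mCherry/sfGFP bins and deep-sequenced. PSI runs from 0 (unstable) to 1 (stable). Backgrounds are wild type, das1Δ and doa10Δ at 30 °C, and wild type, das1Δ, cdc34-1 and cdc53-1 at 37 °C; 2-3 technical replicates each.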

Setting [5] is: genetic background: cdc34-1, temperature: 37 C.
[6] abbreviates: genetic background: cdc53-1, temperature: 37 C.
[7] abbreviates: genetic background: das1 deletion, temperature: 30 C.
[8] abbreviates: genetic background: das1 deletion, temperature: 37 C.
The mark [9] stands for this setting: genetic background: doa10 deletion, temperature: 30 C.
Where [10] appears, read: genetic background: wild type, temperature: 30 C.
[11] abbreviates: genetic background: wild type, temperature: 37 C.

± gives the standard deviation of the averaged measurements.

The results in this text go back to the supplement of paper PMC10724198.
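For protein stability index of tFT-peptide fusion (C-terminal peptide) in this document: PSI is a weighted mean of sequencing reads over stability bins, variants kept only with over 10 reads, mCherry proximal and sfGFP distal, peptide attached via GGGS linker.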
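For protein stability index of tFT-peptide fusion in deletion strain of DOA10 in this document: PSI per variant is the weighted mean of its sequencing read distribution over the sorted stability bins, counting only variants with over 10 reads summed across bins.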
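For protein stability index of tFT-peptide fusion in wild type in this document: PSI derived as read-weighted mean over the 8 sorting bins, only variants exceeding 10 total reads kept, mCherry placed adjacent to the peptide and sfGFP distal.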

Regarding AITLPMCPLLLR, the protein stability index in data set [1] worked out at 0.207; in data set [2], 0.649; in data set [3] it was 0.256 ± 0.018; in data set [4] (setting [5]), 0.0636 ± 0.0091; in data set [4] (setting [6]), 0.047 ± 0.0088; in data set [4] (setting [7]), 0.165 ± 0.017. The protein stability index in data set [4] (setting [8]) was determined as 0.204 ± 0.014; in data set [4] (setting [9]) it was 0.6226 ± 0.0028; in data set [4] (setting [10]), 0.16 ± 0.027; in data set [4] (setting [11]), 0.157 ± 0.0086.
In the case of CLVSLPILLFFR, the protein stability index in data set [1] is 0.0566; in data set [2], 0.586; in data set [3] it was 0.0658 ± 0.021; in data set [4] (setting [5]), 0.0435 ± 0.013; in data set [4] (setting [6]), 0.0381 ± 0.0045; in data set [4] (setting [7]), 0.0501 ± 0.019. The protein stability index in data set [4] (setting [8]) turned out to be 0.0652 ± 0.014; in data set [4] (setting [9]) it was 0.545 ± 0.023; in data set [4] (setting [10]), 0.0298 ± 0.0067; in data set [4] (setting [11]), 0.0556 ± 0.015.
Take PLYMCSVGCWFR: the protein stability index in data set [1] turned out to be 0.462; in data set [2], 0.643.
The like results for RALRVLLPLYFR were, in that order, 0.353 and 0.669.
For the sequence RLLRVLLPLYFR, the protein stability index in data set [1] worked out at 0.407; in data set [2] it was 0.673.
As for RLYMCSVGCWFR, the values for the protein stability index in data set [1] and in data set [2] were 0.382 and 0.644, respectively.
Take RQTRLDAIYFRI: the protein stability index in data set [1] was 0.505; in data set [2], 0.703.
The like results for RSKRVLLPLYFR were, in that order, 0.362 and 0.675.
With RSLKVLLPLYFR, the protein stability index in data set [1] is 0.27; in data set [2] it was 0.666.
The like results for RSLMVLLPLYFR were, in that order, 0.34 and 0.637.
The like results for RSLRFLLPLYFR were, in that order, 0.322 and 0.632.
RSLRLLLPLYFR: the protein stability index in data set [1] was 0.289; in data set [2], 0.656.
RSLRNLLPLYFR: the protein stability index in data set [1] turned out to be 0.465; in data set [2], 0.687.
The like results for RSLRSLLPLYFR were, in that order, 0.469 and 0.702.
As for RSLRVLAPLYFR, the protein stability index in data set [1] stood at 0.352; in data set [2], 0.687.
The like results for RSLRVLLCLYFR were, in that order, 0.306 and 0.471.
The like results for RSLRVLLILYFR were, in that order, 0.23 and 0.38.
The like results for RSLRVLLMLYFR were, in that order, 0.218 and 0.468.
Turning to RSLRVLLPLHFR, the protein stability index was determined as 0.517 in data set [1] and 0.714 in data set [2].
The like results for RSLRVLLPLSFR were, in that order, 0.401 and 0.673.
The like results for RSLRVLLPLYFE were, in that order, 0.524 and 0.64.
Turning to RSLRVLLPLYFF, the protein stability index worked out at 0.364 in data set [1] and 0.502 in data set [2].
The like results for RSLRVLLPLYFN were, in that order, 0.107 and 0.165.
With RSLRVLLPLYFRG, the protein stability index in data set [1] stood at 0.324; in data set [2] it was 0.694.
The like results for RSLRVLLPLYTR were, in that order, 0.547 and 0.648.
With RSLRVLVPLYFR, the values for the protein stability index in data set [1] and in data set [2] were 0.218 and 0.657, respectively.
The like results for RSLRVMLPLYFR were, in that order, 0.217 and 0.625.
The like results for RSLWVLLPLYFR were, in that order, 0.284 and 0.605.
RSMRVLLPLYFR: the protein stability index in data set [1] stood at 0.257; in data set [2], 0.653.
As for RSTRLDAIYFRI, the protein stability index in data set [1] stood at 0.53; in data set [2] it was 0.678.
The like results for RSWRVLLPLYFR were, in that order, 0.297 and 0.692.
The like results for RVMRLDAIYFRI were, in that order, 0.302 and 0.656.
The like results for RVTILDAIYFRI were, in that order, 0.545 and 0.663.
Take RVTKLDAIYFRI: the protein stability index in data set [1] came out at 0.483; in data set [2] it was 0.667.
Regarding RVTRLDAIGFRI, the protein stability index in data set [1] turned out to be 0.69; in data set [2], 0.696.
Consider RVTRLDAIRFRI, for which the protein stability index in data set [1] was found to be 0.616; in data set [2], 0.652.
The like results for RVTRLDAIYFDI were, in that order, 0.7 and 0.734.
The like results for RVTRLDAIYFRIH were, in that order, 0.087 and 0.143.
For the sequence RVTRLDAIYFRIY, the values for the protein stability index in data set [1] and in data set [2] were 0.123 and 0.242, respectively.
The like results for RVTRLDAIYMRI were, in that order, 0.382 and 0.71.
RVTRLDAIYWRI: the protein stability index in data set [1] came to 0.385; in data set [2], 0.684.
Regarding RVTRLDEIYFRI, the protein stability index in data set [1] was 0.685; in data set [2], 0.731.
In the case of RVTRLDYIYFRI, the protein stability index in data set [1] is 0.179; in data set [2], 0.538.
The like results for RVTRLLAIYFRI were, in that order, 0.155 and 0.287.
Turning to RVTRLRAIYFRI, the protein stability index in data set [1] was found to be 0.159; in data set [2] it was 0.314.
As for RVTRQDAIYFRI, the protein stability index in data set [1] came to 0.553; in data set [2] it was 0.698.
Consider RVTTLDAIYFRI, for which the protein stability index stood at 0.524 in data set [1] and 0.661 in data set [2].
In the case of RVTWLDAIYFRI, the protein stability index in data set [1] worked out at 0.323; in data set [2], 0.656.
Consider RVWRLDAIYFRI, for which the protein stability index in data set [1] was 0.246; in data set [2] it was 0.543.
